According to article PMC5903968 (FEBS letters, 2018):

Legend:
Experiment in all cases: enzyme inhibition assay
[1] = target: T1, human MMP-9 catalytic domain (MMP-9CAT), residues 107-215, 391-443 (human, UniProt P14780 107-215; P14780 391-443)
T1 chain (looked up): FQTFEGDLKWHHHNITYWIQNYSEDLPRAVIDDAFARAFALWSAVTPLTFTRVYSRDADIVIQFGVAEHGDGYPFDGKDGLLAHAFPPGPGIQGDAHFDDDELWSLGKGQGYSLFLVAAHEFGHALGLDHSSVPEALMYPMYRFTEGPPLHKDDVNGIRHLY

[2] = target: MMP-14 catalytic domain (MMP-14CAT) (UniProt P50281 114-287)
[3] = target: T2, MMP-1 catalytic domain (MMP-1CAT) (UniProt P03956 100-269)
T2 sequence (looked up): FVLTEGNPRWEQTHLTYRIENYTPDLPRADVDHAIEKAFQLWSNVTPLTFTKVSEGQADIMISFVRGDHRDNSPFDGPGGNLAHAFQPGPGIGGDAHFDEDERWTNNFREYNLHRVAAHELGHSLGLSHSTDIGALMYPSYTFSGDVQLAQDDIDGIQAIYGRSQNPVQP

[4] = target: MMP-10 catalytic domain (MMP-10CAT) (UniProt P09238 99-263)
Sequence of MMP-10 catalytic domain (MMP-10CAT) (P09238 99-263): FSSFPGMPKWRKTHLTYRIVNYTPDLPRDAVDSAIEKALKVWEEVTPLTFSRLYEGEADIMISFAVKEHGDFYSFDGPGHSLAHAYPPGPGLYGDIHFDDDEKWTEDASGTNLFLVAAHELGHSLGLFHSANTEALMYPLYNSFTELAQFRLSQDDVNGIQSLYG

- Ki [1]: 0.12 nM
- Ki [2]: 2.52 nM
- Ki [3]: 0.25 nM
- Ki [4]: 4.3 nM
B1: N-terminal domain of TIMP-2 (N-TIMP2), wild type (domain or fragment, UniProt P16035 27-152, looked up)
chain: CSCSPVHPQQAFCNADVVIRAKAVSEKEVDSGNDIYGNPIKRIQYEIKQIKMFKGPEKDIEFIYTAPSSAVCGVSLDVGGKKEYLIAGKAEGDGKMHITLCDFIVPWDTLSTTQKKSLNHRYQMGC
